From patent US20220402985A1 come the findings set out here.

Assay [1] concerns the target ErbB3 on rat Schwann cells (rat) (UniProt Q62799). In words: cell-based or functional assay.
Assay [2] addresses ErbB4 on neonatal rat cardiomyocytes (rat) (UniProt Q62956). In words: cell-based or functional assay.

“And” between values parts separate entries of the source, which are not always exact repeats. Equal values may be shown once.

Sequence of ErbB4 on neonatal rat cardiomyocytes (rat) (Q62956 26-1308): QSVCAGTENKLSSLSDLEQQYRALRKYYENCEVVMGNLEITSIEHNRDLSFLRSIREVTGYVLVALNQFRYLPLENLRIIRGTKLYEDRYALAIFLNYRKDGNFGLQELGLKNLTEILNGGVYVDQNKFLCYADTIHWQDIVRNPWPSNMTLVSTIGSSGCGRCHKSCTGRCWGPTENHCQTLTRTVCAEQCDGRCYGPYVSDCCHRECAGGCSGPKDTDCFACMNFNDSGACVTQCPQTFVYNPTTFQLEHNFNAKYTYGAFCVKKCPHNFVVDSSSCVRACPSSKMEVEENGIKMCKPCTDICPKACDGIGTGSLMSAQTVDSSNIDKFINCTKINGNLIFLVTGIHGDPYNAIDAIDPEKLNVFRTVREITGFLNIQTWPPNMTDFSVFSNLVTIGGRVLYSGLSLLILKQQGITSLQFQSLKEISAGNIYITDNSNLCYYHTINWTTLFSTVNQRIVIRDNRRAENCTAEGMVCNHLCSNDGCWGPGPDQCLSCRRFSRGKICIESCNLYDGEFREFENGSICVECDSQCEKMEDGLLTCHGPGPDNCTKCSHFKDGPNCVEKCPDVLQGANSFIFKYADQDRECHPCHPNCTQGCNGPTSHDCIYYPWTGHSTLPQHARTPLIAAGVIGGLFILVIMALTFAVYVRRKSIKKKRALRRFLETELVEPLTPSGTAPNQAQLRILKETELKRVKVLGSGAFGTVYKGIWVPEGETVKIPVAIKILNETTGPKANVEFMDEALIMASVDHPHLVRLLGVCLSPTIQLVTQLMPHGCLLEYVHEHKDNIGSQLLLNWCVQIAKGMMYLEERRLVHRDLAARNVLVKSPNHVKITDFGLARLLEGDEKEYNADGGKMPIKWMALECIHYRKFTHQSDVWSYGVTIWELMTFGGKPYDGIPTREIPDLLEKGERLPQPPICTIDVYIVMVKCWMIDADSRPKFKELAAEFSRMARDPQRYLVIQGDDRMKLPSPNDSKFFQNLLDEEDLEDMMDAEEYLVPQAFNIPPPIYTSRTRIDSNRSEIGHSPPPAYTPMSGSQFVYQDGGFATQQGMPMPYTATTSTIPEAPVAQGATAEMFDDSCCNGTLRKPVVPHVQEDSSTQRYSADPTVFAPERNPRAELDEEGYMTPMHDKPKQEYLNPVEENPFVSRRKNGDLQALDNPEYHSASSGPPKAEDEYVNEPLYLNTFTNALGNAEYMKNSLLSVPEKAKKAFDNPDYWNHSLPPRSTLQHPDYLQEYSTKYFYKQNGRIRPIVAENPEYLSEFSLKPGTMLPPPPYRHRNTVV
Sequence of ErbB3 on rat Schwann cells (rat) (Q62799 20-1339): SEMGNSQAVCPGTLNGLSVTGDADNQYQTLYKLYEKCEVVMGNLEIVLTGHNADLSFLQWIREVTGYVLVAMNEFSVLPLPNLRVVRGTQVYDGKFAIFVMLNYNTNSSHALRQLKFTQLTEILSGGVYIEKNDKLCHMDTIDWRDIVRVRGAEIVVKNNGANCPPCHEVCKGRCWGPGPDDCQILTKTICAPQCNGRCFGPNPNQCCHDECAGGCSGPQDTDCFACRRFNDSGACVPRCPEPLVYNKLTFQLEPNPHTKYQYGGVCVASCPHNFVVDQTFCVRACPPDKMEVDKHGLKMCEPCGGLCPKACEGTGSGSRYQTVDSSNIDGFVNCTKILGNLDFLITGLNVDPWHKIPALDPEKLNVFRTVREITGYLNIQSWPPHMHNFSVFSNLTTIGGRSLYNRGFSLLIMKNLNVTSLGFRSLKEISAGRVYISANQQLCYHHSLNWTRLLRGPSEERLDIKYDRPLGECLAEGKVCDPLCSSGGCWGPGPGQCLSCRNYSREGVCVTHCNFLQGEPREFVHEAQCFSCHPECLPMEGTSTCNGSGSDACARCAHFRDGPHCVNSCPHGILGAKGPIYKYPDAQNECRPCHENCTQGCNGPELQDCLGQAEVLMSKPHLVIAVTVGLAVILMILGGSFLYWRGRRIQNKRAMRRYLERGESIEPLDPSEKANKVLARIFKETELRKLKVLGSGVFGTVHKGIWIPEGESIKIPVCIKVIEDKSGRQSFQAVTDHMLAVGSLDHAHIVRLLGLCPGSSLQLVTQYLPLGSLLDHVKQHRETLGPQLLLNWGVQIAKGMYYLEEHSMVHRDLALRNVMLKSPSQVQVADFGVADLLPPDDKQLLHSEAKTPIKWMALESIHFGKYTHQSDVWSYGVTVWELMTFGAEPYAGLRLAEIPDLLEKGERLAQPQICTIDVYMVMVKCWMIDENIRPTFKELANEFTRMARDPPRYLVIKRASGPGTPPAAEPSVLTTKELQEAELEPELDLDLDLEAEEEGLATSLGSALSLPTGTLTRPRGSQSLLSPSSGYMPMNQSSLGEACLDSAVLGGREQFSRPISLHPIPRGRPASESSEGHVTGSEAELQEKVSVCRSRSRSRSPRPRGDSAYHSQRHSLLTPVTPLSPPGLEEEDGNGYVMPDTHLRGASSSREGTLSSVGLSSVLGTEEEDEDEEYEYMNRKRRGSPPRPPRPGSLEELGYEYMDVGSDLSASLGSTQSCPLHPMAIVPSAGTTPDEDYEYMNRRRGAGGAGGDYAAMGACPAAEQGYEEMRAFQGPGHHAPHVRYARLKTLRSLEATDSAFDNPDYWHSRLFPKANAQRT

Regarding “huNRG1(S177-Q237)(wt)::3x(G4Q)::huFcSEFL2 (Pb) (from UniProt P0DOX5 223-449) (Fc fusion)”, in assay [1], the Schwann cells (SC) (ErbB3) Avg EC50 came to 70 pM. In assay [2], the Cardiomyocyte (CM) (ErbB4) Avg EC50 is 210 pM and the Selectivity SC/CM is 0.3.

As to “huNRG1(S177-S228)(wt)::3x(G4Q)::huFcSEFL2 (Pb) (from UniProt P0DOX5 300-449) (Fc fusion)”, the Schwann cells (SC) (ErbB3) Avg EC50 in assay [1] came to 70 pM. Besides, in assay [2], the Cardiomyocyte (CM) (ErbB4) Avg EC50 is 2600 pM and the Selectivity SC/CM stood at 0.03.

Consider “huNRG1(S177-F229)(wt)::3x(G4Q)::huFcSEFL2 (Pb) (Fc fusion)”, for which, in assay [1], the Schwann cells (SC) (ErbB3) Avg EC50 stood at 100 pM. In assay [2], this molecule yielded a Cardiomyocyte (CM) (ErbB4) Avg EC50 of 340 pM and a Selectivity SC/CM of 0.3.

Regarding “huNRG1(S177-F229) huIgG1z SELF2 Fc (Fc fusion)”, in assay [1], the Schwann cells (SC) (ErbB3) Avg EC50 amounted to 140 pM. Also, in assay [2], the CM % Agonism AVG came out at 91.4%, the Cardiomyocyte (CM) (ErbB4) Avg EC50 stood at 310 pM and the Selectivity SC/CM worked out at 0.452.

Regarding “huNRG1(S177-S228)(wt)((G4E)2:G4)::huFcSEFL2 (Pb) (Fc fusion)”, the Schwann cells (SC) (ErbB3) Avg EC50 in assay [1] worked out at 22.2 pM. Further, in assay [2], the CM % Agonism AVG was determined as 92.6%, the Cardiomyocyte (CM) (ErbB4) Avg EC50 came to 84 pM and the Selectivity SC/CM came to 0.264.

B1: :huFcSEFL2(desK)vl31(+):G4SG4:huNRG1(S177-Q237)(NRGE1C) (Fc fusion)
chain: DKTHTCPPCPAPELLGGPSVFLFPPKPKDTLMISRTPEVTCVVVDVSHEDPEVKFNWYVDGVEVHNAKTKPCEEQYGSTYRCVSVLTVLHQDWLNGKEYKCKVSNKALPAPIEKTISKAKGQPREPQVYTLPPSREKMTKNQVSLTCLVKGFYPSDIAVEWESNGQPENNYKTTPPVLKSDGSFFLYSKLTVDKSRWQQGNVFSCSVMHEALHNHYTQKSLSLSPGGGGGSGGGGSHLVKCGEKHKSFCVNGGECFMIEGPSNPSRYLCKCPNEFTGDRCQEDFMASFYKAEELYQDKTHTCPPCPAPELLGGPSVFLFPPKPKDTLMISRTPEVTCVVVDVSHEDPEVKFNWYVDGVEVHNAKTKPCEEQYGSTYRCVSVLTVLHQDWLNGKEYKCKVSNKALPAPIEKTISKAKGQPREPQVYTLPPSREEMTENQVSLTCLVEGFYPSDIAVEWESNGQPENNYETTPPVLDSDGSFFLYSDLTVDKSRWQQGNVFSCSVMHEALHNHYTQKSLSLSPGK
In assay [2], B1 returned a CM % Agonism AVG of 85.4%, a Cardiomyocyte (CM) (ErbB4) Avg EC50 of 300 pM and a Selectivity SC/CM of more than 10000.

B2: :huFcSEFL2(desK)vl31(+):G4SG4:huNRG1(S177-Q237)(NRGE1D) (Fc fusion)
chain: DKTHTCPPCPAPELLGGPSVFLFPPKPKDTLMISRTPEVTCVVVDVSHEDPEVKFNWYVDGVEVHNAKTKPCEEQYGSTYRCVSVLTVLHQDWLNGKEYKCKVSNKALPAPIEKTISKAKGQPREPQVYTLPPSREKMTKNQVSLTCLVKGFYPSDIAVEWESNGQPENNYKTTPPVLKSDGSFFLYSKLTVDKSRWQQGNVFSCSVMHEALHNHYTQKSLSLSPGGGGGSGGGGSHLVKCGESHKSFCVNGGECYMVEGSSIPSRYLCKCPNEFTGDRCQEDFMASFYKAEELYQDKTHTCPPCPAPELLGGPSVFLFPPKPKDTLMISRTPEVTCVVVDVSHEDPEVKFNWYVDGVEVHNAKTKPCEEQYGSTYRCVSVLTVLHQDWLNGKEYKCKVSNKALPAPIEKTISKAKGQPREPQVYTLPPSREEMTENQVSLTCLVEGFYPSDIAVEWESNGQPENNYETTPPVLDSDGSFFLYSDLTVDKSRWQQGNVFSCSVMHEALHNHYTQKSLSLSPGK
For B2, in assay [2], the CM % Agonism AVG was 88.7%, the Cardiomyocyte (CM) (ErbB4) Avg EC50 is 230 pM and the Selectivity SC/CM is more than 10000.

B3: :huNRG1(S177-F229)(NRGE1C)::2X(G4A)G4::huFcSEFL2v131(+) (Fc fusion)
chain: SHLVKCGEKHKSFCVNGGECFMIEGPSNPSRYLCKCPNEFTGDRCQEDFMASFGGGGAGGGGAGGGGDKTHTCPPCPAPELLGGPSVFLFPPKPKDTLMISRTPEVTCVVVDVSHEDPEVKFNWYVDGVEVHNAKTKPCEEQYGSTYRCVSVLTVLHQDWLNGKEYKCKVSNKALPAPIEKTISKAKGQPREPQVYTLPPSREKMTKNQVSLTCLVKGFYPSDIAVEWESNGQPENNYKTTPPVLKSDGSFFLYSKLTVDKSRWQQGNVFSCSVMHEALHNHYTQKSLSLSPGKDKTHTCPPCPAPELLGGPSVFLFPPKPKDTLMISRTPEVTCVVVDVSHEDPEVKFNWYVDGVEVHNAKTKPCEEQYGSTYRCVSVLTVLHQDWLNGKEYKCKVSNKALPAPIEKTISKAKGQPREPQVYTLPPSREEMTENQVSLTCLVEGFYPSDIAVEWESNGQPENNYETTPPVLDSDGSFFLYSDLTVDKSRWQQGNVFSCSVMHEALHNHYTQKSLSLSPGK
As for B3, in assay [2], the CM % Agonism AVG came to 91.6%, the Cardiomyocyte (CM) (ErbB4) Avg EC50 was 3400 pM and the Selectivity SC/CM was more than 10000.

B4: :huNRG1(S177-F229)(NRGE1D)::2X(G4A)G4::huFcSEFL2v131(+) (Fc fusion)
chain: SHLVKCGESHKSFCVNGGECYMVEGSSIPSRYLCKCPNEFTGDRCQEDFMASFGGGGAGGGGAGGGGDKTHTCPPCPAPELLGGPSVFLFPPKPKDTLMISRTPEVTCVVVDVSHEDPEVKFNWYVDGVEVHNAKTKPCEEQYGSTYRCVSVLTVLHQDWLNGKEYKCKVSNKALPAPIEKTISKAKGQPREPQVYTLPPSREKMTKNQVSLTCLVKGFYPSDIAVEWESNGQPENNYKTTPPVLKSDGSFFLYSKLTVDKSRWQQGNVFSCSVMHEALHNHYTQKSLSLSPGKDKTHTCPPCPAPELLGGPSVFLFPPKPKDTLMISRTPEVTCVVVDVSHEDPEVKFNWYVDGVEVHNAKTKPCEEQYGSTYRCVSVLTVLHQDWLNGKEYKCKVSNKALPAPIEKTISKAKGQPREPQVYTLPPSREEMTENQVSLTCLVEGFYPSDIAVEWESNGQPENNYETTPPVLDSDGSFFLYSDLTVDKSRWQQGNVFSCSVMHEALHNHYTQKSLSLSPGK
With B4, in assay [2], the CM % Agonism AVG worked out at 87.1%, the Cardiomyocyte (CM) (ErbB4) Avg EC50 was found to be 2000 pM and the Selectivity SC/CM was more than 10000.

B5: :huNRG1(S177-F229)(NRGE1D)::2X(G4E)G4::huFcSEFL2v131(+) (Fc fusion)
chain: SHLVKCGESHKSFCVNGGECYMVEGSSIPSRYLCKCPNEFTGDRCQEDFMASFGGGGEGGGGEGGGGDKTHTCPPCPAPELLGGPSVFLFPPKPKDTLMISRTPEVTCVVVDVSHEDPEVKFNWYVDGVEVHNAKTKPCEEQYGSTYRCVSVLTVLHQDWLNGKEYKCKVSNKALPAPIEKTISKAKGQPREPQVYTLPPSREKMTKNQVSLTCLVKGFYPSDIAVEWESNGQPENNYKTTPPVLKSDGSFFLYSKLTVDKSRWQQGNVFSCSVMHEALHNHYTQKSLSLSPGKDKTHTCPPCPAPELLGGPSVFLFPPKPKDTLMISRTPEVTCVVVDVSHEDPEVKFNWYVDGVEVHNAKTKPCEEQYGSTYRCVSVLTVLHQDWLNGKEYKCKVSNKALPAPIEKTISKAKGQPREPQVYTLPPSREEMTENQVSLTCLVEGFYPSDIAVEWESNGQPENNYETTPPVLDSDGSFFLYSDLTVDKSRWQQGNVFSCSVMHEALHNHYTQKSLSLSPGK
In assay [2], B5 yielded a CM % Agonism AVG of 91.9%, a Cardiomyocyte (CM) (ErbB4) Avg EC50 of 1900 pM and a Selectivity SC/CM of more than 10000.

B6: :huNRG1(S177-F229)(NRGE1C)::2X(G4E)G4::huFcSEFL2v131(+) (Fc fusion)
chain: SHLVKCGEKHKSFCVNGGECFMIEGPSNPSRYLCKCPNEFTGDRCQEDFMASFGGGGEGGGGEGGGGDKTHTCPPCPAPELLGGPSVFLFPPKPKDTLMISRTPEVTCVVVDVSHEDPEVKFNWYVDGVEVHNAKTKPCEEQYGSTYRCVSVLTVLHQDWLNGKEYKCKVSNKALPAPIEKTISKAKGQPREPQVYTLPPSREKMTKNQVSLTCLVKGFYPSDIAVEWESNGQPENNYKTTPPVLKSDGSFFLYSKLTVDKSRWQQGNVFSCSVMHEALHNHYTQKSLSLSPGKDKTHTCPPCPAPELLGGPSVFLFPPKPKDTLMISRTPEVTCVVVDVSHEDPEVKFNWYVDGVEVHNAKTKPCEEQYGSTYRCVSVLTVLHQDWLNGKEYKCKVSNKALPAPIEKTISKAKGQPREPQVYTLPPSREEMTENQVSLTCLVEGFYPSDIAVEWESNGQPENNYETTPPVLDSDGSFFLYSDLTVDKSRWQQGNVFSCSVMHEALHNHYTQKSLSLSPGK
In the case of B6, in assay [2], the CM % Agonism AVG came out at 94%, the Cardiomyocyte (CM) (ErbB4) Avg EC50 turned out to be 2900 pM and the Selectivity SC/CM is more than 10000.

B7: huNRG1(S177-Q237)(1D4)::GG::huFcSEFL2 (Pb) (Fc fusion)
chain: SHLVKCGERDKTFCVNGGECYVVEHSSNPSRYLCKCPNEFTGDRCQKFFLASFYKAEELYQGGDKTHTCPPCPAPELLGGPSVFLFPPKPKDTLMISRTPEVTCVVVDVSHEDPEVKFNWYVDGVEVHNAKTKPCEEQYGSTYRCVSVLTVLHQDWLNGKEYKCKVSNKALPAPIEKTISKAKGQPREPQVYTLPPSREEMTKNQVSLTCLVKGFYPSDIAVEWESNGQPENNYKTTPPVLDSDGSFFLYSKLTVDKSRWQQGNVFSCSVMHEALHNHYTQKSLSLSPGK
As to B7, the Cardiomyocyte (CM) (ErbB4) Avg EC50 in assay [2] was 924 pM and 576 pM.

B8: :huFcSEFL2(desK)vl31(+):G4SG4:huNRG1(S177-F229)(NRGE1C) (Fc fusion)
chain: DKTHTCPPCPAPELLGGPSVFLFPPKPKDTLMISRTPEVTCVVVDVSHEDPEVKFNWYVDGVEVHNAKTKPCEEQYGSTYRCVSVLTVLHQDWLNGKEYKCKVSNKALPAPIEKTISKAKGQPREPQVYTLPPSREKMTKNQVSLTCLVKGFYPSDIAVEWESNGQPENNYKTTPPVLKSDGSFFLYSKLTVDKSRWQQGNVFSCSVMHEALHNHYTQKSLSLSPGGGGGSGGGGSHLVKCGEKHKSFCVNGGECFMIEGPSNPSRYLCKCPNEFTGDRCQEDFMASFDKTHTCPPCPAPELLGGPSVFLFPPKPKDTLMISRTPEVTCVVVDVSHEDPEVKFNWYVDGVEVHNAKTKPCEEQYGSTYRCVSVLTVLHQDWLNGKEYKCKVSNKALPAPIEKTISKAKGQPREPQVYTLPPSREEMTENQVSLTCLVEGFYPSDIAVEWESNGQPENNYETTPPVLDSDGSFFLYSDLTVDKSRWQQGNVFSCSVMHEALHNHYTQKSLSLSPGK
In assay [2], B8 yielded a CM % Agonism AVG of 62.7%, a Cardiomyocyte (CM) (ErbB4) Avg EC50 of 6400 pM and a Selectivity SC/CM of more than 10000.

B9: :huFcSEFL2(desK)vl31(+):G4SG4:huNRG1(S177-F229)(NRGE1D) (Fc fusion)
chain: DKTHTCPPCPAPELLGGPSVFLFPPKPKDTLMISRTPEVTCVVVDVSHEDPEVKFNWYVDGVEVHNAKTKPCEEQYGSTYRCVSVLTVLHQDWLNGKEYKCKVSNKALPAPIEKTISKAKGQPREPQVYTLPPSREKMTKNQVSLTCLVKGFYPSDIAVEWESNGQPENNYKTTPPVLKSDGSFFLYSKLTVDKSRWQQGNVFSCSVMHEALHNHYTQKSLSLSPGGGGGSGGGGSHLVKCGESHKSFCVNGGECYMVEGSSIPSRYLCKCPNEFTGDRCQEDFMASFDKTHTCPPCPAPELLGGPSVFLFPPKPKDTLMISRTPEVTCVVVDVSHEDPEVKFNWYVDGVEVHNAKTKPCEEQYGSTYRCVSVLTVLHQDWLNGKEYKCKVSNKALPAPIEKTISKAKGQPREPQVYTLPPSREEMTENQVSLTCLVEGFYPSDIAVEWESNGQPENNYETTPPVLDSDGSFFLYSDLTVDKSRWQQGNVFSCSVMHEALHNHYTQKSLSLSPGK
B9: in assay [2], the CM % Agonism AVG is 72.3%, the Cardiomyocyte (CM) (ErbB4) Avg EC50 was determined as 4300 pM and the Selectivity SC/CM was more than 10000.
